In the DeepSol protein solubility set:

experiment: soluble on expression in E. coli; label from the status in PepcDB or PDB records

Row | Sequence | soluble on expression in E. coli
1 | MGSDKIHHHHHHMTEQVMNKHQLETGLSILGAPVPGQEIVLNEGALSLLEVLCDQFAAEVPKLLEMRRQKQELIDKGSLPDFLPETRAIRDGDWQIRGIPQDLQDRRVEITGPVDRKMIINALNANVKVFMADFEDSLAPSWIKVIQGQINLRDAVRGEIEYTAPETGKHYTLDDDPAVLIARVRGLHLKEKHVAFNGEAIPGALFDFCLYFYHNYRQLLEKGSGPYFYIPKLESHVEARWWAKVFAYVEERFCLTPGTIKCTCLIETLPAVFEMEEILYELRSNIVALNCGRWDYIFSYIKTLKKHSDRILPDRQAVTMDKPFLSAYSRLLIKTCHKRGALAMGGMAAFIPAKDQAQNEAVLVKVRGDKELEARNGHDGTWVAHPGLADTAMGIFNEYIGEDHVNQLHITRDVDAPILARDLLMPCEGERTESGMRLNIRIALQYIEAWIRGNGCVPIYGLMEDAATAEISRTSIWQWIQHEQKLSNGKLVTKALFKEMLVEELANVKLEVGPDRFTHGSFTQAAVLLEEITTADELVDFLTLPGYEILTQGDNA | not soluble
2 | DLKQREQALEDSRQRYQTLLQAAPDPIFVADAETGEIVEANAAAEELRGQPRDDIIGRHQTELHPEEAGGLYEDVFEQAFDDASTITELPDGTQPELATPDGETVPIEISAAAVSLPDGPVLFGVFRDVS | not soluble
3 | MFSRRTTPSPSITTASSSTFSISNLTNNNATSTSDLPASAISNIVPQIPPTPRRVPPKIGLLRHLSGFLESKKDLMNDWEIGGTQNKWVCPSDRHLHLRAQLKSGWSVRTATARSPTNSKAQTGSITAAEQEHIQKVLAKAEESKSKEQQRIGKMVDRLEKMRRRATGNGVTHCLLCHTEFGLLASKSYAAMCVDCRKYVCQRNCGVETTDVNQTTGKVETVFLCKICSEAREVLWKKSGAWFYKEMPEFQRPDDRLPYYVPVTTNGTLPNASSAATPLSGTPGGAGPQPMTMPSTSSCQMTTPKWASPGVCNSPGLQMNGGPTSPLPNGTRRNTGHGGIEFPSSSRPSICSVLQAIEPLDRSKSPRPRIQPRWVNEKVMSSMSVDDEEKAASSSDGESFVQSGVPRRALNNKTPVGSTSATTSPAPPPTSTTPTSRREANMERFSRHTHAHANRLYSTDDDDDSSPESRPSTRSTSPRHSLATPSSYAHDTCHDTSLPDADTRSIDSGVVQSDHSNPQQSGLTCSSSSLTPLQQQASHDHHSGGGTPRRISNPDRTTSRVAQSASGTSLVTPPPPISSRTSPDNCNSSPLNVMEHKSSSASTASSGGNRRVGSAEPVLNNHHAMHNNQNHNDINKKLISQTSRAESPLAASSSFLSSPDDDTKQKNRRRDGVGRVNSLQLRTSLDDVAPPVAPISKMNGHIVSSEPTSSTTSNQNHTSVPIPTVPVVPEEEEEKAITASTESASEPGSLGSITLTLTYHSADKKLKMHLIRAKNLKAMDSNGFSDPYVKFHLLPGNTKATKLTSKTIEKTLNPEWNEEMSYYGITEDDKEKKILRVTVLDRDRIGSDFLGETRIALKKLNDNEMKKFNLYLESALPVPQQTKEEENEDRGKINVGLQYNIQQGSLFININRCVELVGMDSTGFSDPYCKVSLTPITSKAHRAKTSTKKRTLNPEWNEQLQFVVPFKDLPKKTLQIGVYDHDLGKHDDYIGGILLSTSAKDERGRQWIKCIENPGTLVEAWHRLELDS | not soluble
4 | MGHHHHHHSHMSGGEVVCSGWLRKSPPEKKLKRYAWKRRWFVLRSGRLTGDPDVLEYYKNDHAKKPIRIIDLNLCQQVDAGLTFNKKEFENSYIFDINTIDRIFYLVADSEEEMNKWVRCICDICGFNPTEEDPVK | not soluble
5 | MGSDKIHHHHHHMSIVEEQAQAGAASTSGSLLDDIMAQARISPVDEGYSVAKQGIAALVANILDSGNAAEPVNKALVDSMIVELDKKLSKQIDVILHAKELQELESSWRSLKLLIDRTDFRENIKLLVLHATKEELLEDFEFAPEISQSGFYKHVYSSGYGQFGGQPIGGVIGDYAMTQSSPDIKLMQYVSAVGAMAHAPFISSVAPTFFGVDRFTDLPSIKDLKSVFEGPAYTKWRSLRESEDGRYLGLTAPRFLARLPYDPVENPIKGFNYKEDISTDHEHYLWGNTAYLMGTALTDSFAKYRWCPNIIGPQSGGAITDLPVHVYQAMGQLQAKIPTEVLITDRREYEMAEEGFITLTMRKDSDNAAFFSANSVQKPKVFPNTKEGKEAETNYKLGTQLPYMFIINRLAHYIKVLQREQIGSWKERQDLERELNTWIKQYIADQENPPADVRSRRPLRAAQIKVLDVEGEPGWYQVTMSVRPHFKYMGANFELSLVGRLDKE | not soluble
6 | MMKRNILAVIVPALLVAGTANAAEIYNKDGNKVDLYGKAVGLHYFSKGNGENSYGGNGDMTYARLGFKGETQINSDLTGYGQWEYNFQGNNSEGADAQTGNKTRLAFAGLKYADVGSFDYGRNYGVVYDALGYTDMLPEFGGDTAYSDDFFVGRVGGVATYRNSNFFGLVDGLNFAVQYLGKNERDTARRSNGDGVGGSISYEYEGFGIVGAYGAADRTNLQEAQPLGNGKKAEQWATGLKYDANNIYLAANYGETRNATPITNKFTNTSGFANKTQDVLLVAQYQFDFGLRPSIAYTKSKAKDVEGIGDVDLVNYFEVGATYYFNKNMSTYVDYIINQIDSDNKLGVGSDDTVAVGIVYQF | soluble
7 | MGSDKIHHHHHHENLYFQGMRYLSKDILEEVITQRPSDSYKSNFGRVVLIGGNRQYGGAIIMSTEACINSGAGLTTVITDVKNHGPLHARCPEAMVVGFEETVLLTNVVEQADVILIGPGLGLDATAQQILKMVLAQHQKQQWLIIDGSAITLFSQGNFSLTYPEKVVFTPHQMEWQRLSHLPIEQQTLANNQRQQAKLGSTIVLKSHRTTIFHAGEPFQNTGGNPGMATGGTGDTLAGIIAGFLAQFKPTIETIAGAVYLHSLIGDDLAKTDYVVLPTKISQALPTYMKKYAQPHTAPDSELLEQKRSR | soluble
8 | ITASGENRNAINDLLGAMCYDEETARTYQGYVAELDNPHTPETEEYGISSFVFKGDRPFDRQRLIAALRSTRGIVRSKGHCWISDRIDMVQVWHQAGPDLRIAPAGYWQSAGITPSNEIVVIGVNFDHAQAQQLLNDAMLSDSEVQQLLSTADAAKS | not soluble
9 | MLDLRFQRLHGKTTLTTRHHVGLLTVQRPFYPEEETCHLCLLHPPGGIVGGDELIINAIIDSDCHTLITMPGASKFYRSSGAQAHLQQNLTLCNNATLEWLPQDSIFFPGAHATLHTVFHLSSSSTLLAWDLLCLGRPVIGETFSHGTLANRLEIWVDGSPLLIERLHVANGELTCVARKPWVGTMLFYLGNETQLEDIREKLTPLENYAGATLTDGLLTVRFLSDDNLRCQ | not soluble
10 | MKYFMGPHVWQRTIADLEALGHQRVDTFEQAEAYINTEPRPLRIPTIPESVGFVQHCFTGVNQLIDAHVITETGVRWANMAGGFAQPVAESALGLMLSQAHHHKAFALAGTWRVARELDRIQQWLHSVGEPRCVVIFGAGGIAKELIRLLEPFGMHVIAVNRSGRSVAGADETFAMKDAQGLWSRGDFIVNILPLTQETKGLVDRDVFAQMKPSAIFINVGRGATVVTDDLVDALQRGVIAGAGLEVVDPEPLPDSHALHSMPNCTITPHMAASDHVAELHVARIFDANAQAFTRGETMPTEVNPHLGY | not soluble
11 | GINAGKMAMIVTDKGEQVTKAINACCNRGSTILKGMGGYKMDKKEVVICACNNKEMFFVQQVVKEVDPAAFTVVLESNEVHGEGFKMFQIGEGNVTVQTGLRSCCADRAKMQRQ | not soluble
12 | TEEDPSSGHGGVALESLSSFLAHSRRAGIYRLHLPDSVLSHFVRAALDYRERQVPFDFAFDSASDAELYCTELVAAALLRADSLLPIRPSISVAGRRVYSLDDLLLLPGTKCMALAN | not soluble
13 | MSLQILTRKMPGQFKVGCMDLMIEEAAGSGLFMRLFFPTDSEITGPSSLPVWIPRPEYAYGVGEYLGHSPHQMDLISSLVIGDKRVDCIDNAQLSTKSDKWPVLVFSHGLGGSRTFYSTYCTSLASHGYVVAAVEHRDSSACWTYKLVEKNGTLVEKPMKIKLVDRNDKDQFKIRNEQVGKRAEECAKAVKILEQLDSGNVKDKVIIGNNANLEFFKNKLLTTTASIIGHSFGGATSIASSSSDFQKAIVLDGWMYPLDQNQQEQAKQPIMFLNVGDWQWNENLEVMRKILPNNEGNILLTLSGAVHQSFTDFPFVFPNWLAKQFGVHGPTEPYLCMQSAIELTLSFLKDGKEGHHHHHH | not soluble
